Molecular target: AtWRKY50 DBD_K26Q (Arabidopsis thaliana, UniProt Q8VWQ5 =M+99-173, K123Q;internal_change)
Test: DPI-ELISA

B1: W2 (dsDNA)
DNA 1: AAATTATTCAGCCATCAAAAGTTGACCAATAAT
DNA 2: ATTATTGGTCAACTTTTGATGGCTGAATAATTT
B1: binds.
